Results on seven molecules are retold here after publication PMC4259882.

Data set [1] has as its target T1, FadR WT (Escherichia coli K12, UniProt P0A8V6 1-239). Nature of the data set: EMSA; Roche DIG gel shift binding buffer (composition not stated), 15 min, room temperature; 0.1 pmol (Fig. 3) or 0.2 pmol (Fig. 6) probe; 7-7.5% native PAGE.
The target of data set [2] is T2, FadR K113 (W60G) (Escherichia coli strain K113, UniProt P0A8V6 1-239, W60G). Nature of the data set: EMSA; up to 2 pmol protein; Roche DIG gel shift binding buffer (composition not stated), 15 min, room temperature; 0.1 pmol (Fig. 3) or 0.2 pmol (Fig. 6) probe; 7-7.5% native PAGE. (In general: A gel shift assay detects complexes by their altered migration in electrophoresis.)

Data set [3] deals with T1, FadR WT. Nature of the data set: EMSA; dose-dependent, 0.05-10 pmol protein; Roche DIG gel shift binding buffer (composition not stated), 15 min, room temperature; 0.1 pmol (Fig. 3) or 0.2 pmol (Fig. 6) probe; 7-7.5% native PAGE.
Another data set concerns the target FadR F74G/W75G (Escherichia coli K12, UniProt P0A8V6 1-239, F74G;W75G). As to the kind of experiment: EMSA; up to 10 pmol protein; Roche DIG gel shift binding buffer (composition not stated), 15 min, room temperature; 0.1 pmol (Fig. 3) or 0.2 pmol (Fig. 6) probe; 7-7.5% native PAGE.
The target in the next data set is FadR F74G (Escherichia coli K12, UniProt P0A8V6 1-239, F74G). Described as above.
Data set [4] deals with T2, FadR K113 (W60G). The data set is described as above.
For a further data set, the target named is FadR W75G (Escherichia coli K12, UniProt P0A8V6 1-239, W75G). Described as above.

B1: fadL probe 2 (dsDNA)
DNA 1: CTCTCGCCACTGGTCTGATTTCTAAGATGTACCTC
DNA 2: GAGGTACATCTTAGAAATCAGACCAGTGGCGAGAG
On to B1, for which the binding result with FadR WT [1] is reported as “binds”; with FadR K113 (W60G) [2], “no binding”.

B2: fabA probe (dsDNA)
DNA 1: TTTATTCCGAACTGATCGGACTTGTTCAGCGTACACGTGTTAGCTATCCTGCGTGC
DNA 2: GCACGCAGGATAGCTAACACGTGTACGCTGAACAAGTCCGATCAGTTCGGAATAAA
Turning to B2, the binding result is reported as “binds” with FadR WT [1] and “no binding” with FadR K113 (W60G) [2].

B3: fadD probe 2 (dsDNA)
DNA 1: GTAATTATCAAGCTGGTATGATGAGTTAATATTATG
DNA 2: CATAATATTAACTCATCATACCAGCTTGATAATTAC
As for B3, the binding result with FadR WT [3] is recorded as “binds”; in the data set with FadR F74G/W75G, “no binding”; with FadR F74G, “no binding”; with FadR K113 (W60G) [4], “no binding”; in the data set with FadR W75G, “no binding”.

B4: fabB probe (dsDNA)
DNA 1: TCTATTAAATGGCTGATCGGACTTGTTCGGCGTACAAGTGTACGCTATTGTGCATTC
DNA 2: GAATGCACAATAGCGTACACTTGTACGCCGAACAAGTCCGATCAGCCATTTAATAGA
Consider B4, for which the binding result with FadR WT [1] is given as “binds”; with FadR K113 (W60G) [2] it was “no binding”.

B5: fadL probe 1 (dsDNA)
DNA 1: GCAACATTCCAGCTGGTCCGACCTATACTCTCGCC
DNA 2: GGCGAGAGTATAGGTCGGACCAGCTGGAATGTTGC
Consider B5, for which the binding result in the data set with FadR WT [1] is “binds”; with FadR K113 (W60G) [2], “no binding”.

B6: fadD probe 1 (dsDNA)
DNA 1: GAAACAGCGGCTGGTCCGCTGTTTCTGCATTCT
DNA 2: AGAATGCAGAAACAGCGGACCAGCCGCTGTTTC
For the molecule B6, the binding result with FadR WT [1] was “binds”; with FadR K113 (W60G) [2], “no binding”.

B7: fadBA probe (dsDNA)
DNA 1: ACTTCGACTCATCTGGTACGACCAGATCACCTTGCGG
DNA 2: CCGCAAGGTGATCTGGTCGTACCAGATGAGTCGAAGT
As for B7, the binding result with FadR WT [1] is given as “binds”; in the data set with FadR K113 (W60G) [2], “no binding”.
